The source of these data is patent US20110059093A1 (Hoffmann-La Roche, published 2011).

For experiment [1], the target named is T1, phosphorylated MCAK fragment Ile-Gln-Lys-Gln-Lys-Arg-Arg-Ser(PO3H2)-Val-Asn-Ser-Lys-Ile-Pro-Ala (SEQ ID NO:17) (human, also: Glu(biotinyl-PEG) coupled to the peptide, site not given here).
T1 construct: Fragment of human mitotic centromere-associated kinesin (KIF2C, UniProt Q99661 printed); biotinylated control peptide; also called MCAK phosphopeptide
T1 peptide: IQKQKRR[pS]VNSKIPA
Briefly: ELISA, biotinylated peptide on streptavidin plate. The method, then:
Peptides representing the Tau pS422 sequence 416-430 (phosphorylated and non phosphorylated) and MCAK_Human (88-102)[95-pSer] were synthesized and biotinylated to allow the coating to a streptavidin labeled microtiter plate. To test for maximal binding of Tau phosphopeptide to the assay plates, different concentrations of Tau phosphopeptide ranging from 1 ng/ml to 2000 ng/ml were used for coating. Finally 50 ng/ml Tau phosphopeptide was used for coating for 60 min at room temperature. Anti Tau pS422 antibodies 2.10.3., 2.20.4. and 5.6.11 were incubated in the peptide labeled microtiter plates for 60 min in concentrations up to 1000 ng/ml. After washing, the binding of the antibodies was detected using an anti-mouse—IgG Fc antibody which was POD-labeled. After incubation with ABTS® for 20 min at room temperature absorbance (O.D.) at 405 nm-492 nm was measured. The antibody binding was determined by EC₅₀. Typical EC₅₀ value could be determined in the range of 100 ng/ml for 2.10.3., 8 ng/ml for 2.20.4. and 1 ng/ml for 5.6.11. The nonphosphorylated Tau fragment and (MCAK_Human (88-102)[95-pSer]) were used as controls. No binding of the control peptides could be observed. Typical back-ground values were around 30 mE (Table 1), which is about 1% of the maximal value measured with phosphorylated Tau fragment. […]
Background: In an ELISA, binding on a coated surface is turned into a signal by an enzyme label.

Experiment [2] concerns the target T2, phosphorylated Tau fragment Ser-Ile-Asp-Met-Val-Asp-Ser(PO3H2)-Pro-Gln-Leu-Ala-Thr-Leu-Ala-Asp (SEQ ID NO:9) (human, also: biotin attached through 1x epsilon-lysine and 4x beta-alanine, site not given here).
T2 construct: also called Tau (416-430)[pS422]; Tau phosphopeptide
T2 peptide: SIDMVD[pS]PQLATLAD
Briefly: ELISA, ratio of EC50 values on the two peptides.

For experiment [3], the target named is T3, KLH (key hole limpet hemocyanine).
T3 construct: Control antigen coated at 1 µg/ml
Briefly: ELISA, single point, KLH coated. The method, then:
(§1) Rabbit monoclonal antibodies were recombinantly expressed in HEK 293 cells. Cell culture supernatants or purified rabbit antibodies were tested for binding to biotinylated Tau (416-430)[pS422], non-phosphorylated Tau (416-430), KLH (key hole limpet hemocyanine) and the unrelated phospho-peptide MCAK_Human (88-102)[95-pSer] by ELISA. For the preparation of ELISA plates, streptavidine pre-coated microtiter plates were incubated with biotinylated Tau ([…])[pS422] at 50 ng/ml for 1 hour at room temperature. Coating with KLH or control peptides was performed at 1 μg/ml. Rabbit Anti Tau pS422 antibody (Abcam AB51071) or rabbit antibody containing supernatants were incubated in the antigen labeled microtiter plates for 60 min at various concentrations. After intensive washing, the binding of the rabbit antibodies was detected using a sheep anti-rabbit IgG digoxigenin conjugated detection antibody (Chemicon AQ301D). After incubation with TMB at room temperature absorbance at 370 nm-492 nm was measured. The antibody binding was characterized by its EC50 values. The antibody binding to biotinylated Tau (416-430)[pS422] and non-phosphorylated Tau (416-430) peptides was characterized by its EC50 values. Cross-reactivity with KLH or MCAK phosphopeptide was estimated by single-point measurement at high concentrations, i.e. at 1:5 dilution of the cell culture supernatants. […] Binding to KLH and MCAK control phosphopeptide was at background level with all antibodies, which is about […] of the maximal value measures with Tau phosphopeptide.

In experiment [4] the target is T2, phosphorylated Tau fragment …. Briefly: ELISA, biotinylated peptide on streptavidin plate, anti-rabbit IgG detection. The method, then: as §1
Experiment [5] addresses T4, Tau fragment Ser-Ile-Asp-Met-Val-Asp-Ser-Pro-Gln-Leu-Ala-Thr-Leu-Ala-Asp (SEQ ID NO:10) (human, also: biotinylated, site not given here).
T4 construct: Biotinylated control peptide on streptavidin plates; also called nonphosphorylated Tau fragment; non-phosphorylated Tau (416-430)
T4 peptide: SIDMVDSPQLATLAD
The experiment is described as above. Here is the method: as §1

Experiment [6] has as its target T1, phosphorylated MCAK fragment …. The experiment in a line: ELISA, single point, MCAK phosphopeptide coated. Here is the method: as §1

Square brackets hold non-standard residues; d marks the D form. Ends that are not written are not given here. pS = N[C@@H](COP(=O)(O)O)C(=O)O

B1: Mab2.10.3 (anti-Tau pS422 antibody) (antibody, IgG1, V domains shown)
VH: EVQLVESGGDLVRPGGSLKLSCAASGFTFRTYGMSWVRQTADKRLEWVATISSGGTYTYYADNVRERFTISRDNARDTLYLQMSRLESDDTAMYYCTRRYGYDGGGSFDVWGAGTRVTVSS
VL: EIVMTQAAPSVPVTPGESASISCRSNKSLLHSNGNTYLCWFLQRPGQSPQLLIYRMSTLAPGVPDRFSGSGSGTAFTLRISRLEAEDVGVYYCMQHIEYPLTFGAGTKLELK
notes: Mouse monoclonal antibody purified from hybridoma supernatant; also called clone 2.10.3; Tau_2.10.3
Consider B1, for which the binding result in experiment [1] was “no binding (tested: up to 1000 ng/ml)”.

B2: anti-Tau pS422 antibody Mab 005 (antibody, V domains shown)
VH: QSVEESGGRLVTPGTPLTLTCTVSGLSLSSNAINWVRQAPGKGLEWIGYISTSGNTYYASWAKGRFTISKTSTTVDLKITSPTTEDTATYFCGRGDLWGPGTLVTVSS
VL: QVLTQTASPVSAAVGSTVTINCQASQSVYKNNYLAWFQQKPGQPPKRLIYSASTLASGVSSRFKGSGSGTQFTLTISDVQCDDAATYYCLGSCDSSSNNCVAFGGGTEVVVK
notes: Rabbit monoclonal antibody, recombinantly expressed in HEK293 with rabbit kappa and gamma constant regions
As for B2, the “selectivity compared to non-phosphorylated Tau peptide” value in experiment [2] is at least 100 fold. Moreover, the “OD 1:5 dilution of supernatant” value was determined as 0.026 mE in experiment [3] and 0.067 mE in experiment [6]. Moreover, the concentration for a half-maximal effect (EC50) (commonly the concentration needed to bring the measured effect to its halfway point) was under 0.003 µg/mL in experiment [4] and 3.73 µg/mL in experiment [5].

B3: anti-Tau pS422 antibody Mab 020 (antibody, V domains shown)
VH: QSVEESGGRLVTPGTPLTLTCKVSGFSLSSYDMNWVRQAPGKGLEWVGAISTGGNTYYASWAKGRFTISKTSTTVTLTITSPTTADTATYFCARGSSIWGPGTLVTVSL
VL: QVLTQTASPVSAAVGSTVTINCQASQSVYKNNYLRWYQQKPGQPPKRLIYTASTLASGVSSRFKGSGSGTQFTLTISDVQCDDAATYYCLGGYDCNSADCWAFGGGTEVVVK
notes: as for B2
As for B3, the “OD 1:5 dilution of supernatant” value in experiment [3] amounted to 0.016 mE; in experiment [6], 0.01 mE.

B4: anti-Tau pS422 antibody Mab 085 (antibody, V domains shown)
VH: QSVEESGGRLVTPGTPLTLTCTVSGLSLSSNAINWVRQAPGKGLEWIGYIAVSGNTYYASWAKGRFTISKASTTVDLKMTSPTAEDTGTYFCGKSNIWGPGTLVTVSL
VL: QVLTQTASPVSAAVGITVTISCQSSQSVRTNKLAWFQQKPGQPPKRLIYSASTLDSGVPSRFSASGSGTQFTLTISDVQCDDAATYYCLGYYDCSIADCVAFGGGTEVVVK
notes: as for B2
As to B4, in experiment [2], the “selectivity compared to non-phosphorylated Tau peptide” value was at least 100 fold. In addition, the results for the “OD 1:5 dilution of supernatant” value in experiment [3] and in experiment [6] were 0.029 mE and 0.062 mE, respectively. Besides, the 50% effective concentration (EC50) in experiment [4] was 0.0009 µg/mL; in experiment [5], 0.146 µg/mL.

B5: anti-Tau pS422 antibody Mab 086 (antibody, V domains shown)
VH: QSVEESGGRLVTPGTPLTLTCTVSGFSLSSNAINWVRQAPGKGLEWIGYIAVSGNTYYASWAKGRFTISKASTTVDLKMTSPTAEDTGTYFCGKSNIWGPGTLVTVSL
VL: QVLTQTTSPVSAAVGSTVTISCQSSQSVRTNKLAWFQQKPGQPPKRLIYSASTLDFGVPSRFSASGSGTQFTLTISDVQCDDAATYYCLGYFDCSIADCVAFGGGTEVVVK
notes: as for B2
For B5, in experiment [2], the “selectivity compared to non-phosphorylated Tau peptide” value is at least 100 fold. For the same molecule, the “OD 1:5 dilution of supernatant” value was 0.046 mE in experiment [3] and 0.104 mE in experiment [6]. Also, the 50% effective concentration (EC50) in experiment [4] came to 0.0011 µg/mL; in experiment [5] it was 0.266 µg/mL.

B6: anti-Tau pS422 antibody Mab 019 (antibody, V domains shown)
VH: QSVEESGGRLVTPGTPLTLTCTVSGIDLSSYTMNWVRQAPGKGLDWIGFINSGGYTSYASWTRGRFTISKTSTTVDLRITSPTTEDTATYFCARYGGGSGFDLWGPGTLVTVSS
VL: QVLTQTASSVSAAVGGTVTINCQSSQSVYNNRLAWYQQKPGQPPKLLIYKASTLASGVPSRFKGSGSGTQFTLTISDLECDDAATYYCAGGYINIFAFGGGTEVVVK
notes: as for B2
Consider B6, for which the “selectivity compared to non-phosphorylated Tau peptide” value in experiment [2] is at least 100 fold. For the same molecule, the figures for the “OD 1:5 dilution of supernatant” value in experiment [3] and in experiment [6] were 0.026 mE and 0.023 mE, respectively. Also, the EC50 in experiment [4] is under 0.003 µg/mL; in experiment [5] it was 1.08 µg/mL.

B7: anti-Tau pS422 antibody Mab 097 (antibody, V domains shown)
VH: QSVEESGGRLVTPGTPLTLTCTVSGIDLSSYSITWVRQAPGKGLEYIGFIGTGGSTYYASWAKGRFTISRTSTTVDLKITSPTTEDTATYFCARGGDLWGPGTLVTVSS
VL: QVLTQTASSVSAAVGGTVTINCQSSQNVYNNNKLAWFQQKPGQPPKRLIYGASTLASGVSSRFKGSGSGTQFTLTISDLECDDAATYYCLGGYSGNIYTFGGGTEVVVK
notes: as for B2
For the molecule B7, the “selectivity compared to non-phosphorylated Tau peptide” value in experiment [2] is at least 100 fold. For the same molecule, the “OD 1:5 dilution of supernatant” value in experiment [3] stood at 0.042 mE; in experiment [6], 0.029 mE. Further, the results for the EC50 in experiment [4] and in experiment [5] were 0.0013 µg/mL and 1.28 µg/mL, respectively.
